Experimental data taken from PMC5303823, “DEK-targeting DNA aptamers as therapeutics for inflammatory arthritis”.

Target: T1, DEK (recombinant, baculovirus) (UniProt P35659 1-375)
T1 sequence: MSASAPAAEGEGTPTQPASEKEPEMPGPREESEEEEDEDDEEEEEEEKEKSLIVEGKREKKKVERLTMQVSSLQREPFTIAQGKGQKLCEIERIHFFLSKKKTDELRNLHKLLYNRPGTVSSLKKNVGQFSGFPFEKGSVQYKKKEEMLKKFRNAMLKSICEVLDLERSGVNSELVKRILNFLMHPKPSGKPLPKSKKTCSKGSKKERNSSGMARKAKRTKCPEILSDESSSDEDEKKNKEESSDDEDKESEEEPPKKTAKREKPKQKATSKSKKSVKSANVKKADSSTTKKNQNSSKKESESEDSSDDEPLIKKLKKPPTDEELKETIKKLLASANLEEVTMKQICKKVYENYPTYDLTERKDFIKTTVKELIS
Assay: pull-down, biotinylated aptamer on magnetic beads, immunoblot; two DEK concentrations, overnight 4 C; Selection and dot blot: 20 mM Tris pH 7.6, 100 mM NaCl, 5 mM MgCl2 (selection at room temperature; dot blot with 100 ug/ml salmon sperm DNA); pull-down: overnight at 4 C, PBS washes
Conditions: protein: recombinant; tags: His tag (SELEX resin); label: biotin (pull-down on magnetic beads)

Q: Does GGGGTTAAATATTCCCACATTGCCTGCGCCAGTACAAATAG (ssDNA) [DTA-64] bind?
A: Result: binds
